Assay results from patent publication US20220218785A1 (ALPINE IMMUNE SCIENCES, published 2022).
Blank lines part the entries; values can stand above or below the binder they belong to.

Assays:
[1] = molecular target: T1, human CD28, full-length, on transfected cells (human, UniProt P10747 19-220); assay: flow cytometry on CHO cells expressing CD28, anti-human IgG-PE
T1 construct: whole, on cells; also called CD28 tfxn

[2] = molecular target: T2, mouse ICOS, full-length, on transfected HEK293 cells (mouse, UniProt Q9WVS0 21-200); assay: flow cytometry on transfected HEK293 cells
T2 construct: whole, on cells
T2 sequence (looked up): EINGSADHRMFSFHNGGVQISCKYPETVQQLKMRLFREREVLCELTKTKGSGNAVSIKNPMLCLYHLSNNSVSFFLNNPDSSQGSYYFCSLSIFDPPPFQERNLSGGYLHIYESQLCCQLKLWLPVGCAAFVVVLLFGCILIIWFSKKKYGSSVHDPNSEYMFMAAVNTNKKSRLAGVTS
Protocol: (§1) Binding studies were carried out on transfected HEK293 cells generated to express the full-length mammalian (human) surface ligands, CD28, ICOS or CTLA-4, using a transient transfection system (Life Technologies, USA). As a control, binding to mock (non-transfected) cells also was assessed. For staining by flow cytometry, 200,000 cells of appropriate transient transfection or negative control (mock) were plated in 96 well round bottom plates, and, then incubated in staining buffer (PBS, phosphate buffered saline; 1% BSA, bovine serum albumin; and 0.1% sodium azide) for 20 minutes to block non-specific binding. Cells were resuspended in staining buffer containing 100 nM to 1 nM variant immunomodulatory protein in 50 μL. Mean Fluorescence Intensity (MFI) was calculated for each transfectant and negative parental line with Cell Quest Pro software (Becton Dickinson, USA) or a Hypercyt flow cytometer (Intellicyte, USA).
(§2) Binding was assessed substantially as described in Example 1 on transfected HEK293 cells generated to express the full-length surface ligands CD28, ICOS or CTLA-4 from human, cynomolgus monkey, rat or mouse. Transfection was carried out using a transient transfection system (Life Technologies, USA). As a control, binding to mock (non-transfected) cells also was assessed.

[3] = molecular target: T3, mouse CTLA-4, full-length, on transfected HEK293 cells (mouse, UniProt P09793 36-223); assay: flow cytometry on transfected HEK293 cells
T3 construct: whole, on cells
Protocol: as §1, §2

[4] = molecular target: T4, rat CD28, full-length, on transfected HEK293 cells (rat, UniProt P31042 20-218); assay: flow cytometry on transfected HEK293 cells
T4 construct: whole, on cells
Protocol: as §1, §2

[5] = molecular target: T5, human CTLA-4, full-length, on transfected cells (human, UniProt P16410 36-223); assay: flow cytometry on transfected HEK293 cells
T5 construct: whole, on cells; also called CTLA-4 tfxn
Protocol: as §1, §2

[6] = molecular target: T6, rat ICOS, full-length, on transfected HEK293 cells (rat, UniProt Q9R1T7 21-200); assay: flow cytometry on transfected HEK293 cells
T6 construct: whole, on cells
T6 sequence (looked up): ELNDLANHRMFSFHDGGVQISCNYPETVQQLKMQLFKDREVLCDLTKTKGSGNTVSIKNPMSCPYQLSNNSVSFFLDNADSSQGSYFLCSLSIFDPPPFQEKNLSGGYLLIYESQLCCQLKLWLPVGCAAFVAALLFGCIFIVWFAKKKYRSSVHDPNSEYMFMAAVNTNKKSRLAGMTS
Protocol: as §1, §2

[7] = molecular target: T7, mouse CD28, full-length, on transfected HEK293 cells (mouse, UniProt P31041 20-218); assay: flow cytometry on transfected HEK293 cells
T7 construct: whole, on cells
Protocol: as §1, §2

[8] = molecular target: T8, human ICOS, full-length, on transfected cells (human, UniProt Q9Y6W8 21-199); assay: flow cytometry on CHO cells expressing ICOS, anti-human IgG-PE
T8 construct: whole, on cells; also called ICOS tfxn
T8 sequence (looked up): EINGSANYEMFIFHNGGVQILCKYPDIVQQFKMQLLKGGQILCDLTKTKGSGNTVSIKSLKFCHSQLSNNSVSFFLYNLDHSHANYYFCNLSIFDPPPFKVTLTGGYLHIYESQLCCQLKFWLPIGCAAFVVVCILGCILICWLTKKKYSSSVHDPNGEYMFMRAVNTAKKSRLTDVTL

human ICOS = molecular target: T9, human ICOS (human, UniProt Q9Y6W8 21-199); assay: flow cytometry, transfected HEK293 cells
T9 construct: whole, on cells
T9 sequence (looked up): T8 sequence (looked up)
Protocol: as §2

mouse ICOS = molecular target: T10, mouse ICOS (mouse, UniProt Q9WVS0 21-200); assay: flow cytometry, transfected HEK293 cells
T10 construct: whole, on cells
T10 sequence (looked up): T2 sequence (looked up)
Protocol: as §2

cynomolgus monkey CTLA-4 = molecular target: T11, cynomolgus monkey CTLA-4 (cynomolgus monkey, UniProt G7PL88 36-223); assay: flow cytometry, transfected HEK293 cells
T11 construct: whole, on cells
Protocol: as §2

cynomolgus monkey ICOS = molecular target: T12, cynomolgus monkey ICOS (cynomolgus monkey, UniProt A0A2K5TQR6 21-168); assay: flow cytometry, transfected HEK293 cells
T12 sequence: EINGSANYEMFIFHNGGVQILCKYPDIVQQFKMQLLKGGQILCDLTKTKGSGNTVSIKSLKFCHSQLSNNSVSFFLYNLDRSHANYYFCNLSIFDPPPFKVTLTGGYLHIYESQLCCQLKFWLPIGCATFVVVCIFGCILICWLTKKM
Protocol: as §2

cynomolgus monkey CD28 = molecular target: T13, cynomolgus monkey CD28 (cynomolgus monkey, UniProt Q0PDN3 19-220); assay: flow cytometry, transfected HEK293 cells
T13 construct: whole, on cells
Protocol: as §2

mouse CD28 = molecular target: T14, mouse CD28 (mouse, UniProt P31041 20-218); assay: flow cytometry, transfected HEK293 cells
T14 construct: whole, on cells
Protocol: as §2

rat ICOS = molecular target: T15, rat ICOS (rat, UniProt Q9R1T7 21-200); assay: flow cytometry, transfected HEK293 cells
T15 construct: whole, on cells
T15 sequence (looked up): T6 sequence (looked up)
Protocol: as §2

mouse CTLA-4 = molecular target: T16, mouse CTLA-4 (mouse, UniProt P09793 36-223); assay: flow cytometry, transfected HEK293 cells
T16 construct: whole, on cells
Protocol: as §2

human CTLA-4 = molecular target: T17, human CTLA-4 (human, UniProt P16410 36-223); assay: flow cytometry, transfected HEK293 cells
T17 construct: whole, on cells
Protocol: as §2

rat CD28 = molecular target: T18, rat CD28 (rat, UniProt P31042 20-218); assay: flow cytometry, transfected HEK293 cells
T18 construct: whole, on cells
Protocol: as §2

rat CTLA-4 = rat CTLA-4 (rat, UniProt Q62859 36-223); assay: flow cytometry, transfected HEK293 cells
Protocol: as §2

human CD28 = molecular target: T19, human CD28 (human, UniProt P10747 19-220); assay: flow cytometry, transfected HEK293 cells
T19 construct: whole, on cells
Protocol: as §2

[9] = molecular target: T20, ICOS on CHO cells expressing ICOS (UniProt Q9Y6W8 21-199, limits assumed); assay: competition, flow cytometry: competitor labelled ICOSL on CHO cells expressing ICOS
T20 construct: whole, on cells
T20 sequence (looked up): T8 sequence (looked up)

[10] = molecular target: T20, ICOS on CHO cells expressing ICOS; assay: flow cytometry on CHO cells expressing ICOS, bound protein detected with anti-human IgG-PE, median fluorescence against [pM]
[11] = molecular target: T21, CD28 on CHO cells expressing CD28 (UniProt P10747 19-220, limits assumed); assay: competition, flow cytometry: competitor CD80 on CHO cells expressing CD28
T21 construct: whole, on cells

[12] = molecular target: T21, CD28 on CHO cells expressing CD28; assay: competition, flow cytometry: competitor labelled CD86 on CHO cells expressing CD28
[13] = molecular target: T21, CD28 on CHO cells expressing CD28; assay: flow cytometry on CHO cells expressing CD28, bound protein detected with anti-human IgG-PE, median fluorescence against [pM]
[14] = molecular target: CTLA-4 receptor loaded onto anti-human capture sensor (ForteBio Octet AHC) (UniProt P16410 37-162, limits assumed); assay: ForteBio Octet BLI, receptor on AHC sensor
Protocol: (§3) Each titration was globally fit to calculate the association (kₒₙ) and dissociation (Kdis) of each protein. […] The dissociation constant (KD) was calculated and compared to wildtype to determine a fold improvement value (fold imp.).

[15] = molecular target: CD28 receptor loaded onto anti-human capture sensor (ForteBio Octet AHC) (UniProt P10747 19-152); assay: ForteBio Octet BLI, receptor on AHC sensor
Protocol: as §3

[16] = molecular target: T22, ICOS receptor loaded onto anti-human capture sensor (ForteBio Octet AHC) (UniProt Q9Y6W8 21-141, limits assumed); assay: ForteBio Octet BLI, receptor on AHC sensor
T22 sequence (looked up): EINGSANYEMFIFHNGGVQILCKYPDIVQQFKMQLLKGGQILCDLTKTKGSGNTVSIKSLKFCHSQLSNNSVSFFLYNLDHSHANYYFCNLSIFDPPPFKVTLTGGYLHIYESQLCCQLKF
Protocol: as §3

binding result [1]: binds
binding result [2]: binds
binding result [3]: binds
binding result [4]: binds
binding result [5]: binds
binding result [6]: binds
binding result [7]: binds
binding result [8]: binds
B1: variant ICOSL IgV-Fc (N52H/N57Y/Q100R) (Fc fusion)
chain: DTQEKEVRAMVGSDVELSCACPEGSRFDLNDVYVYWQTSESKTVVTYHIPQHSSLEYVDSRYRNRALMSPAGMLRGDFSLRLFNVTPQDEQKFHCLVLSRSLGFQEVLSVEVTLHVAANFSVGGGGSGGGGSEPKSSDKTHTCPPCPAPEAEGAPSVFLFPPKPKDTLMISRTPEVTCVVVDVSHEDPEVKFNWYVDGVEVHNAKTKPREEQYNSTYRVVSVLTVLHQDWLNGKEYKCKVSNKALPAPIEKTISKAKGQPREPQVYTLPPSRDELTKNQVSLTCLVKGFYPSDIAVEWESNGQPENNYKTTPPVLDSDGSFFLYSKLTVDKSRWQQGNVFSCSVMHEALHNHYTQKSLSLSPG
notes: also called variant ICOSL vIgD-Fc fusion molecule; ICOS-IgV Fc (N52H/N57Y/Q100R)

EC50 (human ICOS): 0.633 nM
EC50 (mouse ICOS): 1.43 nM
EC50 (cynomolgus monkey CTLA-4): 0.704 nM
EC50 (cynomolgus monkey ICOS): 0.579 nM
EC50 (cynomolgus monkey CD28): 0.44 nM
EC50 (mouse CD28): 1.15 nM
EC50 (rat ICOS): 1.03 nM
EC50 (mouse CTLA-4): 1.11 nM
EC50 (human CTLA-4): 0.68 nM
EC50 (rat CD28): 1.06 nM
EC50 (rat CTLA-4): 0.793 nM
EC50 (human CD28): 0.648 nM
IC50 [9]: 4.3 nM
EC50 (read off the curve) [10]: ~3 nM
IC50 [11]: 1 nM
IC50 [12]: 0.7 nM
EC50 (read off the curve) [13]: ~3 nM
B2: variant ICOSL IgV-Fc (variant ICOSL IgV N52H/N57Y/Q100R, SEQ ID NO: 36, fused to an inert human IgG1 Fc, e.g. SEQ ID NO: 42) (Fc fusion)
chain: DTQEKEVRAMVGSDVELSCACPEGSRFDLNDVYVYWQTSESKTVVTYHIPQHSSLEYVDSRYRNRALMSPAGMLRGDFSLRLFNVTPQDEQKFHCLVLSRSLGFQEVLSVEVTLHVAANFSVEPKSSDKTHTCPPCPAPEAEGAPSVFLFPPKPKDTLMISRTPEVTCVVVDVSHEDPEVKFNWYVDGVEVHNAKTKPREEQYNSTYRVVSVLTVLHQDWLNGKEYKCKVSNKALPAPIEKTISKAKGQPREPQVYTLPPSRDELTKNQVSLTCLVKGFYPSDIAVEWESNGQPENNYKTTPPVLDSDGSFFLYSKLTVDKSRWQQGNVFSCSVMHEALHNHYTQKSLSLSPG
notes: also called variant ICOSL vIgD-Fc fusion molecule

Response [14]: 0
Response [15]: -0.04
Response [16]: 0.03
B3: wildtype PD-L2 ED-Fc fusion molecule (Fc fusion, UniProt Q9BQ51 20-220, looked up)
chain: LFTVTVPKELYIIEHGSNVTLECNFDTGSHVNLGAITASLQKVENDTSPHRERATLLEEQLPLGKASFHIPQVQVRDEGQYQCIIIYGVAWDYKYLTLKVKASYRKINTHILKVPETDEVELTCQATGYPLAEVSWPNVSVPANTSHSRTPEGLYQVTSVLRLKPPPGRNFSCVFWNTHVRELTLASIDLQSQMEPRTHPT
notes: extracellular domain; Control protein in the ForteBio assays; also called PD-L2-Fc; not shown: Fc part and any linker are not described
